Measurements published in US7056508 (NEW YORK UNIVERSITY, dated 2006).

B1: secreted alkaline phosphatase (AP) control protein (enzyme, human, UniProt P05187 23-511, looked up)
chain: IIPVEEENPDFWNREAAEALGAAKKLQPAQTAAKNLIIFLGDGMGVSTVTAARILKGQKKDKLGPEIPLAMDRFPYVALSKTYNVDKHVPDSGATATAYLCGVKGNFQTIGLSAAARFNQCNTTRGNEVISVMNRAKKAGKSVGVVTTTRVQHASPAGTYAHTVNRNWYSDADVPASARQEGCQDIATQLISNMDIDVILGGGRKYMFRMGTPDPEYPDDYSQGGTRLDGKNLVQEWLAKRQGARYVWNRTELMQASLDPSVTHLMGLFEPGDMKYEIHRDSTLDPSLMEMTEAALRLLSRNPRGFFLFVEGGRIDHGHHESRAYRALTETIMFDDAIERAGQLTSEEDTLSLVTADHSHVFSFGGYPLRGSSIFGLAPGKARDRKAYTVLLYGNGPGYVLKDGARPDVTESESGSPEYRQQSAVPLDEETHAGEDVAVFARGPQAHLVHGVQEQTFIAHVMAFAACLEPYTACDLAPPAGTTDAAHPG
notes: About 50% pure; also called alkaline phosphatase control protein
B2: murine receptor-type protein tyrosine phosphatase-κ (RPTPκ) precursor protein (receptor)
chain: ALGQFSAGGCTFDDGPGACDYHQDLYDDFEWVHVSAQEPHYLPPEMPQGSYMVVDSSNHDPGEKARLQLPTMKENDTHCIDFSYLLYSQKGLNPGTLNILVRVNKGPLANPIWNVTGFTGRDWLRAELAVSTFWPNEYQVIFEAEVSGGRSGYIAIDDIQVLSYPCDKSPHFLRLGDVEVNAGQNATFQCIATGRDAVHNKLWLQRRNGEDIPVAQTKNINHRRFAASFRLQEVTKTDQDLYRCVTQSERGSGVSNFAQLIVREPPRPIAPPQLLGVGPTYLLIQLNANSIIGDGPIILKEVEYRMTSGSWTETHAVNAPTYKLWHLDPDTEYEIRVLLTRPGEGGTGLPGPPLITRTKCAEPMRTPKTLKIAEIQARRIAVDWESLGYNITRCHTFNVTICYHYFRGHNESRADCLDMDPKAPQHVVNHLPPYTNVSLKMILTNPEGRKESEETIIQTDEDVPGPVPVKSLQGTSFENKIFLNWKEPLEPNGIITQYEVSYSSIRSFDPAVPVAGPPQTVSNLWNSTHHVFMHLHPGTTYQFFIRASTVKGFGPATAINVTTNISAPSLPDYEGVDASLNETATTITVLLRPAQAKGAPISAYQIVVEQLHPHRTKREAGAMECYQVPVTYQNALSGGAPYYFAAELPPGNLPEPAPFTVGDNRTYKGFWNPPLAPRKGYNIYFQAMSSVEKETKTQCVRIATKAAATEEPEVIPDPAKQTDRVVKIAGISAGILVFILLLLVVIVIVKKSKLAKKRKDAMGNTRQEMTHMVNAMDRSYADQSTLHAEDPLSLTFMDQHNFSPRLPNDPLVPTAVLDENHSATAESSRLLDVPRYLCEGTESPYQTGQLHPAIRVADLLQHINLMKTSDSYGFKEEYESFFEGQSASWDVAKKDQNRAKNRYGNIIAYDHSRVILQPVEDDPSSDYINANYIDIWLYRDGYQRPSHYIATQGPVHETVYDFWRMVWQEQSACIVMVTNLVEVGRVKCYKYWPDDTEVYGDFKVTCVEMEPLAEYVVRTFTLERRGYNEIREVKQFHFTGWPDHGVPYHATGLLSFIRRVKLSNPPSAGPIVVHCSAGAGRTGCYIVIDIMLDMAEREGVVDIYNCVKALRSRRINMVQTEEQYIFIHDAILEACLCGETAIPVCEFKAAYFDMIRIDSQTNSSHLKDEFQTLNSVTPRLQAEDCSIACLPRNHDKNRFMDMLPPDRCLPFLITIDGESSNYINAALMDSYRQPAAFIVTQYPLPNTVKDFWRLVYDYGCTSIVMLNEVDLSQGCPQYWPEEGMLRYGPIQVECMSCSMDCDVINRIFRICNLTRPQEGYLMVQQFQYLGWASHREVPGSKRSFLKLILQVEKWQEECEEGEGRTIIHCLNGGGRSGMFCAIGIVVEMVKRQNVVDVFHAVKTLRNSKPNMVEAPEQYRFCYDVALEYLESS
notes: Full-length cDNA expressed in HeLa, COS, Drosophila S2 and rat L6 cells, tested on cells or in their lysates; It is partly cleaved at RTKR (640-643) into 110 kDa and 100 kDa products; also called RPTPase-κ; wt RPTPκ
B3: K2AP fusion protein (amino acids 1-639 of the RPTPκ proprotein fused to human placental alkaline phosphatase) (other)
chain: ALGQFSAGGCTFDDGPGACDYHQDLYDDFEWVHVSAQEPHYLPPEMPQGSYMVVDSSNHDPGEKARLQLPTMKENDTHCIDFSYLLYSQKGLNPGTLNILVRVNKGPLANPIWNVTGFTGRDWLRAELAVSTFWPNEYQVIFEAEVSGGRSGYIAIDDIQVLSYPCDKSPHFLRLGDVEVNAGQNATFQCIATGRDAVHNKLWLQRRNGEDIPVAQTKNINHRRFAASFRLQEVTKTDQDLYRCVTQSERGSGVSNFAQLIVREPPRPIAPPQLLGVGPTYLLIQLNANSIIGDGPIILKEVEYRMTSGSWTETHAVNAPTYKLWHLDPDTEYEIRVLLTRPGEGGTGLPGPPLITRTKCAEPMRTPKTLKIAEIQARRIAVDWESLGYNITRCHTFNVTICYHYFRGHNESRADCLDMDPKAPQHVVNHLPPYTNVSLKMILTNPEGRKESEETIIQTDEDVPGPVPVKSLQGTSFENKIFLNWKEPLEPNGIITQYEVSYSSIRSFDPAVPVAGPPQTVSNLWNSTHHVFMHLHPGTTYQFFIRASTVKGFGPATAINVTTNISAPSLPDYEGVDASLNETATTITVLLRPAQAKGAPISAYQIVVEQLHPH
notes: Secreted from baculovirus-infected High-Five cells and about 90% pure; K2AP-a was eluted at alkaline pH and K2AP-b with 50% ethylene glycol; they are the same protein; also called K2AP-a; K2AP-b; not shown: human placental alkaline phosphatase, fused in-frame as a tag

Key:
[1] = target: B2; assay: cell-to-substrate adhesion, induced S2-R-PTP-κ cells on the coated dish
[2] = target: the molecule itself; assay: co-aggregation of diI-labelled and unlabelled S2 cells, fluorescence microscopy
Text: FIGS. 23A–23C. […] Two different cell populations, one of which had been labeled with the fluorescent dye diI (J. Schiessinger et al. Science 195, 307, (1977)), were allowed to co-aggregate and the resulting aggregates inspected by visible and fluorescence microscopy. diI-fluorescence is white in the photographs.

[3] = target: [32P]-tyrosine phosphorylated myelin basic protein; assay: cell-based or functional assay
[32P]-tyrosine phosphorylated myelin basic protein, sequence (P02687 whole entry): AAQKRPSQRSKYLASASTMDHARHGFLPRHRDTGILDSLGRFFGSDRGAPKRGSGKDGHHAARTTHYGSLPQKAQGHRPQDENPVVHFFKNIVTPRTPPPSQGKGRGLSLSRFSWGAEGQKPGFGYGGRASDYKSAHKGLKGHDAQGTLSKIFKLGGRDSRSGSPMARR

[4] = target: B2; assay: cell-to-substrate adhesion, L6 cells on a K2AP-coated surface

## B1
[1]
  binding result: no binding (tested: 20 g/ml (so in the source) spotted)

## B2
[2]
  binding result: binds
[3]
  PTPase activity in immune complexes (release of [32P]-phosphate): ~3 fold

## B3
[4]
  fold increase in adhesive capacity (RPTPκ-overexpressing L6 cells against parental L6 cells): 2.7 fold
